Data taken from paper PMC3753931.

Assays:
[1] = molecular target: T1, GST-Xl-dsRBD (XlrbpA dsRBD2) (Xenopus laevis) (UniProt Q91836); experiment: EMSA; settings: scale: fold higher affinity than P1
T1 sequence: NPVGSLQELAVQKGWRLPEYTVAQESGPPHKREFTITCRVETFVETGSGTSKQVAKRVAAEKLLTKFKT

[2] = molecular target: T2, GST-Xl-dsRBD (XlrbpA dsRBD2) (Xenopus laevis, UniProt Q91836 112-180); experiment: EMSA
T2 sequence: T1 sequence

For 130-bp dsRNA, the binding signal [1] was 30.

30-bp dsRNA gave a binding signal [1] of 30.

With 70-bp dsRNA the binding signal [1] was 30.

50-bp dsRNA showed a binding signal [1] of 30.

B1: 21blunt (dsRNA)
RNA 1: AAGUCACAUUGCCCAAGUCUC
RNA 2: GAGACUUGGGCAAUGUGACUU
B1: binds [2].
